Results: the supplement of paper PMC10724198
± gives the standard deviation of the averaged measurements.

test system: Saccharomyces cerevisiae; experiment: protein stability index of tFT-peptide fusion (C-terminal peptide) (PSI (0-1 scale)); higher = more stable (slower turnover); conditions: genetic background: wild type; temperature: 30 C
Experimental: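 Multiplexed protein stability (MPS) profiling in S. cerevisiae. Random 12-aa peptides (tFT-X12 library) are fused to the C-terminus of a sfGFP-mCherry tandem fluorescent timer, after mCherry and a GGGS linker. Cells are FACS-sorted into 8 mCherry/sfGFP bins and deep-sequenced. The protein stability index (PSI) is the read-weighted bin average, scaled from 0 (unstable) to 1 (stable). Only peptides with >10 reads are reported; cells were grown at 30 °C in SC-His with glucose.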
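Further: PSI is a weighted mean of sequencing reads over stability bins, variants kept only with over 10 reads, mCherry proximal and sfGFP distal, peptide attached via GGGS linker.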

Sequence | protein stability index
KRKHQSPLLNTR | 0.705 ± 0.021
GVLGPSFLSVAV | 0.584 ± 0.0082
RNTKGIIKKKKE | 0.702 ± 0.042
PSPPHLHLHLAP | 0.665 ± 0.013
SLLPGGHRWAGI | 0.659 ± 0.025
WGRGHPIYVCRV | 0.689 ± 0.013
SSTDLLDLALLV | 0.718 ± 0.094
LLLALPSRPPPS | 0.666 ± 0.13
TQSPANIIQRKT | 0.672 ± 0.024
QPLDCPPYHPHH | 0.687 ± 0.016
LRRVKSGPYFRF | 0.684 ± 0.074
RPPAVVHLQPFY | 0.7016 ± 0.0064
GASGRKPGCDRL | 0.67 ± 0.062
DFRAGPLPCRPP | 0.6952 ± 0.0041
SSGVIIGRIAVK | 0.603 ± 0.033
RVSGILQHFTSA | 0.7309 ± 0.0058
KNRKKIKIVCVK | 0.559 ± 0.026
ARLSLEGASRGE | 0.653 ± 0.023
AGGSVGEAGSEG | 0.649 ± 0.026
RAFVSDLPHPKS | 0.704 ± 0.098
LPPRSPLYPLPP | 0.613 ± 0.018
SYMLEGVEGVGE | 0.736 ± 0.086
RDPPLLQPTTSS | 0.648 ± 0.018
IGWFGRCGCCCW | 0.714 ± 0.2
YATLGPDRALVR | 0.655 ± 0.0095

Sequence | protein stability index
FSLPPAASDFPS | 0.685 ± 0.015
AVLSVGHWGSGL | 0.69 ± 0.028
EEECSTPWGIRG | 0.635 ± 0.048
SLSLFPPRRLLP | 0.734 ± 0.088
QVISDEHLCRFV | 0.651 ± 0.083
PPLGPRALPSPA | 0.67 ± 0.038
FVFPFHSRGVSQ | 0.647 ± 0.015
LCGLDCLLRPCY | 0.681 ± 0.011
KITLKSNKTTDN | 0.741 ± 0.018
SKKKTKKRRKKN | 0.698 ± 0.023
SYQPQLDSKRVG | 0.63 ± 0.019
LGSRSGPLFPCV | 0.655 ± 0.015
DFPIEEILGLVG | 0.65 ± 0.05
RLPPPPPPSPHL | 0.711 ± 0.054
VSRWVVCRGGLW | 0.65 ± 0.078
AGRRTGSRESEQ | 0.612 ± 0.061
TQYINTAHKELK | 0.6677 ± 0.00083
SFSCYFPLGFFG | 0.7416 ± 0.001
PALPPLPPPPPA | 0.71 ± 0.016
RILFGALYSSCK | 0.6782 ± 0.0062
SFLGYAVFPYKG | 0.6808 ± 0.0041
PSPPLPPLPPSP | 0.575 ± 0.053
QEKWSKVSKKKE | 0.749 ± 0.19
VGGVVWIGGVVG | 0.667 ± 0.074
SCGWWWGGGAGG | 0.656 ± 0.041

Sequence | protein stability index
VQPAGLEFGPLS | 0.6457 ± 0.0015
RSPLPFPGASVP | 0.747 ± 0.039
GTCWAGAMGGVG | 0.675 ± 0.042
LPPHPPREAPPN | 0.682 ± 0.083
VVYWGFVLGFGA | 0.582 ± 0.055
PIPPPPPLRPSS | 0.69 ± 0.011
AFVLTSRVFFPL | 0.721 ± 0.053
PPPSLPATPIPP | 0.656 ± 0.055
LPGPDLLSRMAS | 0.659 ± 0.019
SHHKAFFDLVFM | 0.7578 ± 0.0051
RSARGRRGWALG | 0.712 ± 0.022
APSSLLTPPACI | 0.734 ± 0.083
CGAGGARGSVAR | 0.693 ± 0.026
PGTATRAPQLIP | 0.727 ± 0.033
RPPSLCSYSICV | 0.585 ± 0.0092
RAWELPRLRGRE | 0.6682 ± 0.0039
PAPLPPPAPSST | 0.69 ± 0.02
VFPWRDSNLYAS | 0.713 ± 0.021
LCPVLRSPFFLF | 0.55128 ± 0.00052
AAGGASRHLSGS | 0.71 ± 0.09
PSPPFLPPPVPL | 0.685 ± 0.056
CASSFSFFRFPP | 0.586 ± 0.019
PSNSRPRASPAC | 0.67 ± 0.039
TTSRTRVAHPPI | 0.622 ± 0.071
RTHLVRRHGEAR | 0.697 ± 0.02

Sequence | protein stability index
SLPPPSPSPSLS | 0.649 ± 0.034
QSSWGGRWVRGG | 0.669 ± 0.011
LSSPSPSCSLPP | 0.701 ± 0.077
GSDPPAPLRHPR | 0.709 ± 0.19
GGLWPWGRVVCW | 0.687 ± 0.078
LSYCLLALFFPL | 0.501 ± 0.009
FLHPSPIPPPLP | 0.7092 ± 0.0012
PARPPPPRPPPP | 0.712 ± 0.03
APTGGTNVRRPE | 0.726 ± 0.024
SSLLPSPPPPLP | 0.677 ± 0.028
GTGRGRAGARCK | 0.679 ± 0.018
PDLEMQMTRTRG | 0.70081 ± 0.00044
RCSPPVFDTGES | 0.652 ± 0.017
PDLLHLPAHRHA | 0.6722 ± 0.0055
STFQVHSLPISP | 0.702 ± 0.031
YGGCGFEEEGVR | 0.73 ± 0.02
NTGNGYDEKTME | 0.7622 ± 0.0014
ARMRQNDKHDGS | 0.662 ± 0.011
DTDHSSNCELPG | 0.696 ± 0.083
SRPPSPPLCHPA | 0.736 ± 0.054
TSFLRSPPPPRL | 0.763 ± 0.012
LFPVTAIACRPS | 0.7266 ± 0.006
FFVFFPLGGFWL | 0.668 ± 0.085
PRTAAFDSLLPT | 0.688 ± 0.036
SSMCYARIIWWG | 0.596 ± 0.039

Sequence | protein stability index
LLPPPLPQAPPT | 0.708 ± 0.03
RQSGSDFYGRSY | 0.663 ± 0.032
PRPPPLPPPLPL | 0.5773 ± 0.0032
IKSKCIQSKETT | 0.6037 ± 0.005
AGGAEAVRRAGG | 0.675 ± 0.019
PLPPPPPPPLPP | 0.737 ± 0.011
SYSLGAGVCGVW | 0.682 ± 0.058
LKDLGKQVVTVR | 0.587 ± 0.0062
TPLAPASPPAAR | 0.717 ± 0.056
WRVVTPPSVDHR | 0.677 ± 0.015
KRKQDKEAEKKS | 0.704 ± 0.019
LTKTAHVGQLWL | 0.708 ± 0.025
VSSVVTTSAIKR | 0.715 ± 0.027
LRPLKVSGGGRG | 0.685 ± 0.045
GEGGENRRNGTV | 0.7 ± 0.12
IVFTPPSVTFHA | 0.825 ± 0.22
HLGIGTRVWEFG | 0.716 ± 0.061
DTSGNQLQDPDI | 0.706 ± 0.029
QRSGNEDWKDLL | 0.888 ± 0.024
VRQKTPREQRVY | 0.701 ± 0.059
RKTPIKTKKSAR | 0.687 ± 0.09
SVALGRQGTPNI | 0.6506 ± 0.0064
FIPPPLALPFYS | 0.674 ± 0.056
ESQGYGSQAKLA | 0.694 ± 0.028
LRTHPPGPLPLA | 0.654 ± 0.12

Sequence | protein stability index
RVFVRFGSCAGG | 0.679 ± 0.059
SSLPPPAPSFVP | 0.646 ± 0.1
ASGLVVDYTLIA | 0.671 ± 0.025
CSSACPPPPPAT | 0.733 ± 0.014
ITNKKKIKDKQT | 0.593 ± 0.033
PPLPPAPLPLPT | 0.639 ± 0.051
PPPGPPLPPGLP | 0.749 ± 0.033
CPIKSLLPGSFA | 0.693 ± 0.03
KSGVWLWGGGGG | 0.724 ± 0.032
VMCWARGWVGST | 0.655 ± 0.05
SVCRVSVKKECR | 0.701 ± 0.12
DVVGGCEKWWER | 0.734 ± 0.049
VTKESPSLCLCV | 0.588 ± 0.041
VAPDSARVFHFV | 0.64 ± 0.025
VLQSLRSLRRLG | 0.549 ± 0.071
GRACCILWGGPE | 0.694 ± 0.06
PPPSPFLPSPFR | 0.7066 ± 0.0061
EYKIKSIERRKK | 0.73 ± 0.04
QKQKKKINIEKR | 0.731 ± 0.017
LKKDVYANNLTD | 0.673 ± 0.004
CCLSCGRPTLGS | 0.731 ± 0.067
GVRRSRAARVRK | 0.777 ± 0.18
ASLFFSLCSLSE | 0.694 ± 0.011
GAFLPLTCDIIC | 0.598 ± 0.013
LGCKGQLFWYIW | 0.6327 ± 0.003

Sequence | protein stability index
CLTTVCHRRVRC | 0.655 ± 0.075
PPGLPPIRCPPT | 0.631 ± 0.037
GLPHPPPHPFSL | 0.763 ± 0.055
ASTLFDCHVLGA | 0.697 ± 0.039
SPRRSPLLLLPL | 0.723 ± 0.064
SRYSAVSVSRWH | 0.696 ± 0.041
LCLRPVISLPHL | 0.716 ± 0.075
TSPLSPAPPPPR | 0.641 ± 0.083
TANRVDDSILSS | 0.671 ± 0.024
MFLPNPTLLTLN | 0.559 ± 0.022
YGGSLLNVFGLG | 0.645 ± 0.0078
LLSHPDLPPIPP | 0.503 ± 0.086
CLGRDVENRDAW | 0.785 ± 0.078
GVGGGGVGLWLG | 0.656 ± 0.025
DNHGWKVEGRLL | 0.686 ± 0.015
SCPPVLFFPFPW | 0.705 ± 0.051
PPILRPAKSAQG | 0.705 ± 0.024
LCVAFWLGLPTT | 0.598 ± 0.011
CCLGVFFGVGGL | 0.772 ± 0.12
RPTSTHQPASPS | 0.684 ± 0.025
SPTLSPPPPLAL | 0.667 ± 0.031
FDPTGPIGMRPT | 0.653 ± 0.0017
SVLVTRILKFFL | 0.558 ± 0.068
FPGVGARAGVGV | 0.697 ± 0.027
IGGPIIYTGRLH | 0.682 ± 0.19

Sequence | protein stability index
STLYLKRKKIKK | 0.696 ± 0.033
LSTPASVLLSSG | 0.682 ± 0.011
LLPSRAPTSIPL | 0.686 ± 0.037
SAFSSSLTALPP | 0.653 ± 0.022
SRGLVVYMDALR | 0.692 ± 0.028
AGGGPGLEARSL | 0.612 ± 0.017
PPHPPPPFPPPP | 0.744 ± 0.015
PPPPPSAPSPLP | 0.665 ± 0.05
RKTPAITSNIQI | 0.722 ± 0.027
SPPLNSFPPTPP | 0.62 ± 0.068
PPALHRPFPPPP | 0.666 ± 0.016
PPPPTRSRRNLP | 0.705 ± 0.047
PPRPRSARLFLR | 0.728 ± 0.05
YVRCSVKCHILT | 0.609 ± 0.029
FRASLPRVPFSS | 0.695 ± 0.11
PKPPPSSGRCPA | 0.633 ± 0.011
PAVIVAPYSQGE | 0.701 ± 0.025
KKKKPKKKTQKS | 0.713 ± 0.04
LLILGTPKQDSR | 0.67 ± 0.036
ALPLLPPHSLPP | 0.617 ± 0.011
VEDRTTNVLNIT | 0.682 ± 0.027
